Results from the supplement of paper PMC9112550, “Optimization of the antimicrobial peptide Bac7 by deep mutational scanning” (BMC Biology, 2022).

System: Escherichia coli TOP10
Assay: shrunken log2 fold change of peptide-encoding DNA abundance (4.5 h post-induction vs induction); higher = less antimicrobial activity (less host growth inhibition)
Details: time post-induction: 4.5 h; library: site-saturation at positions 5, 18, 19, 20
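Further: peptides expressed intracellularly from a pBAD plasmid library in pooled LB shake-flask culture, induced with 0.3% L-arabinose, DNA abundance read by NGS, three biological replicates, DESeq2 with apeglm shrinkage.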

Sequence	shrunken log2 fold change
RRIRPRPPRLPRPRPRPPSIPRP	-0.0949
RRIRVRPPRLPRPRPRPCPGPRP	0.00413
RRIRPRPPRLPRPRPRPTEFPRP	-0.268
RRIRSRPPRLPRPRPRPALTPRP	0.369
RRIRVRPPRLPRPRPRPCPDPRP	-0.0269
RRIRARPPRLPRPRPRPIQRPRP	0.112
RRIRHRPPRLPRPRPRPKRVPRP	-0.0983
RRIRSRPPRLPRPRPRPYECPRP	-0.356
RRIRQRPPRLPRPRPRPTVWPRP	0.339
RRIRWRPPRLPRPRPRPTMCPRP	-0.00672
RRIRGRPPRLPRPRPRPRFNPRP	0.0824
RRIRSRPPRLPRPRPRPEHIPRP	0.0843
RRIRIRPPRLPRPRPRPLVFPRP	-0.348
RRIRLRPPRLPRPRPRPGDTPRP	-0.238
RRIRSRPPRLPRPRPRPQFLPRP	-0.394
RRIRHRPPRLPRPRPRPMIDPRP	-0.161
RRIRSRPPRLPRPRPRPMEPPRP	0.0473
RRIRNRPPRLPRPRPRPYIVPRP	-0.314
RRIRKRPPRLPRPRPRPPSYPRP	0.667
RRIRERPPRLPRPRPRPQPVPRP	-0.13
RRIRYRPPRLPRPRPRPQLLPRP	-0.42
RRIRSRPPRLPRPRPRPCSWPRP	-0.0623

Sequence	shrunken log2 fold change
RRIRVRPPRLPRPRPRPPSMPRP	-0.0312
RRIRVRPPRLPRPRPRPQYLPRP	-0.12
RRIRVRPPRLPRPRPRPIKVPRP	-0.167
RRIRCRPPRLPRPRPRPESLPRP	-0.11
RRIRARPPRLPRPRPRPLSGPRP	0.334
RRIRERPPRLPRPRPRPACFPRP	0.00624
RRIRYRPPRLPRPRPRPCRRPRP	-0.0474
RRIRKRPPRLPRPRPRPEGTPRP	0.0154
RRIRWRPPRLPRPRPRPQMYPRP	-0.168
RRIRQRPPRLPRPRPRPTLKPRP	-0.0628
RRIRTRPPRLPRPRPRPTSCPRP	0.104
RRIRYRPPRLPRPRPRPCFMPRP	-0.675
RRIRDRPPRLPRPRPRPAVPPRP	-0.00426
RRIRQRPPRLPRPRPRPPIMPRP	-0.344
RRIRPRPPRLPRPRPRPCSMPRP	-0.564
RRIRTRPPRLPRPRPRPFRLPRP	-0.365
RRIRDRPPRLPRPRPRPWQLPRP	0.0822
RRIRVRPPRLPRPRPRPPGLPRP	0.373
RRIRQRPPRLPRPRPRPPPAPRP	0.804
RRIRERPPRLPRPRPRPIQPPRP	0.0319
RRIRMRPPRLPRPRPRPNCFPRP	0.153
RRIRDRPPRLPRPRPRPVVYPRP	-0.349

Sequence	shrunken log2 fold change
RRIRSRPPRLPRPRPRPQHPPRP	-0.239
RRIRFRPPRLPRPRPRPEKNPRP	-0.0204
RRIRVRPPRLPRPRPRPAGAPRP	0.417
RRIRKRPPRLPRPRPRPQMYPRP	-0.192
RRIRERPPRLPRPRPRPMYNPRP	-0.301
RRIRERPPRLPRPRPRPSQWPRP	-0.176
RRIRDRPPRLPRPRPRPVMAPRP	0.774
RRIRYRPPRLPRPRPRPSKNPRP	-0.722
RRIRHRPPRLPRPRPRPLKCPRP	-0.024
RRIRIRPPRLPRPRPRPWCFPRP	-0.596
RRIRLRPPRLPRPRPRPKMPPRP	-0.0152
RRIRTRPPRLPRPRPRPSEKPRP	-0.0354
RRIRVRPPRLPRPRPRPIVEPRP	-0.0668
RRIRNRPPRLPRPRPRPMRMPRP	-0.00372
RRIRHRPPRLPRPRPRPRVGPRP	0.371
RRIRARPPRLPRPRPRPDRNPRP	-0.066
RRIRLRPPRLPRPRPRPECIPRP	-0.0423
RRIRTRPPRLPRPRPRPALCPRP	-0.0776
RRIRKRPPRLPRPRPRPDTQPRP	0.202
RRIRARPPRLPRPRPRPWEIPRP	-0.0378
RRIRVRPPRLPRPRPRPSMNPRP	0.331
RRIRTRPPRLPRPRPRPYGIPRP	-0.0927

Sequence	shrunken log2 fold change
RRIRRRPPRLPRPRPRPADLPRP	-0.141
RRIRPRPPRLPRPRPRPQFFPRP	-0.0064
RRIRVRPPRLPRPRPRPMGIPRP	0.134
RRIRDRPPRLPRPRPRPCCVPRP	-0.158
RRIRHRPPRLPRPRPRPITGPRP	0.015
RRIRARPPRLPRPRPRPIDSPRP	-0.0515
RRIRLRPPRLPRPRPRPNRVPRP	-0.0939
RRIRHRPPRLPRPRPRPKWIPRP	-0.779
RRIRNRPPRLPRPRPRPKNRPRP	0.0314
RRIRCRPPRLPRPRPRPCYMPRP	-0.234
RRIRQRPPRLPRPRPRPHLFPRP	0.0199
RRIRARPPRLPRPRPRPVNNPRP	-0.223
RRIRHRPPRLPRPRPRPFAVPRP	-1.08
RRIRHRPPRLPRPRPRPHIQPRP	-0.701
RRIRMRPPRLPRPRPRPCNLPRP	-0.369
RRIRTRPPRLPRPRPRPMHNPRP	-0.503
RRIRGRPPRLPRPRPRPEVKPRP	0.0386
RRIRVRPPRLPRPRPRPFHMPRP	-0.54
RRIRLRPPRLPRPRPRPYVPPRP	-0.383
RRIRHRPPRLPRPRPRPHAHPRP	-0.072
RRIRRRPPRLPRPRPRPQCEPRP	0.153
RRIRIRPPRLPRPRPRPKPYPRP	-0.24

Sequence	shrunken log2 fold change
RRIRMRPPRLPRPRPRPYCYPRP	-0.13
RRIRTRPPRLPRPRPRPIAEPRP	0.0307
RRIRLRPPRLPRPRPRPVKSPRP	-0.075
RRIRWRPPRLPRPRPRPYWSPRP	-0.295
RRIRERPPRLPRPRPRPGGKPRP	-0.0276
RRIRARPPRLPRPRPRPSHMPRP	-0.184
RRIRGRPPRLPRPRPRPRWNPRP	0.423
RRIRFRPPRLPRPRPRPRFDPRP	-0.248
RRIRPRPPRLPRPRPRPPVRPRP	0.353
RRIRKRPPRLPRPRPRPWFKPRP	-0.0948
RRIRGRPPRLPRPRPRPSAAPRP	2.09
RRIRQRPPRLPRPRPRPTNFPRP	-0.159
RRIRLRPPRLPRPRPRPLQDPRP	0.0629
RRIRNRPPRLPRPRPRPDEIPRP	-0.043
RRIRHRPPRLPRPRPRPWNIPRP	-0.246
RRIRTRPPRLPRPRPRPRCRPRP	0.158
RRIRRRPPRLPRPRPRPMREPRP	0.0493
RRIRCRPPRLPRPRPRPMNPPRP	-0.24
RRIRTRPPRLPRPRPRPIGMPRP	0.0258
RRIRTRPPRLPRPRPRPYNKPRP	-1.03
RRIRYRPPRLPRPRPRPPYHPRP	-0.82
